The series addresses His-MBP-eYFP-PRDM9Cst-ZnF (Mus musculus castaneus (CAST/EiJ, Prdm9 Cst allele)) (UniProt Q96EQ9). The series is described as follows: EMSA. The conditions noted are these: 2.5 uM protein, 15 nM DNA, 50 ng/ul polydIdC, EMSA (chimeras): 10 mM Tris-HCl pH 7.5, 50 mM KCl, 1 mM DTT, 0.05% NP-40, 50 uM ZnCl2, titration EMSA: low polydIdC plus 0.03% sarcosyl …. (A gel shift assay detects complexes by their altered migration in electrophoresis.)

The source of these data is paper PMC5440498.

UniProt Q96EQ9, sequence (Q96EQ9 whole entry): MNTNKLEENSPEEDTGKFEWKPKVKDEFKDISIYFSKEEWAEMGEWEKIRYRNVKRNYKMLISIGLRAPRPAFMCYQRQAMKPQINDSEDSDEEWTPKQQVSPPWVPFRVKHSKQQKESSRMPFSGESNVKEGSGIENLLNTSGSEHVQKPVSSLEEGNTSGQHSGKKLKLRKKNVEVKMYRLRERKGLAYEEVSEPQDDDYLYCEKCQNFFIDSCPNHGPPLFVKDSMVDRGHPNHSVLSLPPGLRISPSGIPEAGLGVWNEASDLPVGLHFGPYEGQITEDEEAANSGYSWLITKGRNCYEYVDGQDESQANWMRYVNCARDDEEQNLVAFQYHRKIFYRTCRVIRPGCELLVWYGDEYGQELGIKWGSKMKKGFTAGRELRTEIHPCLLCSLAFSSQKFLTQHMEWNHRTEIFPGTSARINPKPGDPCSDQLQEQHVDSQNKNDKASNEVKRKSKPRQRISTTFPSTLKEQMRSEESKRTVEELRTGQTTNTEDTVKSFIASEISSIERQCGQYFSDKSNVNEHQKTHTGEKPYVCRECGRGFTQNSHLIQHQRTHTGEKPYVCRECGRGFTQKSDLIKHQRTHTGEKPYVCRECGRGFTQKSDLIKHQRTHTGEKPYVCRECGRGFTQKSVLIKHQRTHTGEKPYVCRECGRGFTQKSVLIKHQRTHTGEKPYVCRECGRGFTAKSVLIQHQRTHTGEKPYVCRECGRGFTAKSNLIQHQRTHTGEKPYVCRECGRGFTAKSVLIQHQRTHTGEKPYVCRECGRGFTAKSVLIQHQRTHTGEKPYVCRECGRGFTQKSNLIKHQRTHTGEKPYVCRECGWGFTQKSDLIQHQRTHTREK

“GTGGGAGGAGATGGTGGGTGAATAGTGTGCAGACTTGGACCCTGCCCTTTCTTTACGCATTCCACTAACCATGGG (double strand) [Hlx1 B6 75 bp (hot)]”: the binding signal turned out to be 100 % bound.
